How the values were obtained:
Experiment in all cases: ELISA on immobilized antigen, streptavidin-HRP detection; value is the average over oligomer, monomer and fibril
amyloid beta 1-42 fibril = amyloid beta 1-42 fibril (UniProt P05067)
[1] = molecular target: amyloid beta 1-42 monomer (UniProt P05067)
[2] = molecular target: amyloid beta 1-42 oligomer (UniProt P05067)

Measured: EC50

Sequence of amyloid beta 1-42 oligomer (P05067 672-713 limits assumed): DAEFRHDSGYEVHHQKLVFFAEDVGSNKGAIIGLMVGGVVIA
Sequence of amyloid beta 1-42 monomer (P05067 672-713 limits assumed): as above
Sequence of amyloid beta 1-42 fibril (P05067 672-713 limits assumed): as above

6E10 antibody (biotinylated)
0.031 µg/mL: all assays above
